Results reported in US20040131585A1.

Target: human CXCR4 on intravenously injected human CD34+ angioblasts (human) (UniProt P61073)
Test: cell-based or functional assay

Chain of UniProt P61073 (P61073 whole entry): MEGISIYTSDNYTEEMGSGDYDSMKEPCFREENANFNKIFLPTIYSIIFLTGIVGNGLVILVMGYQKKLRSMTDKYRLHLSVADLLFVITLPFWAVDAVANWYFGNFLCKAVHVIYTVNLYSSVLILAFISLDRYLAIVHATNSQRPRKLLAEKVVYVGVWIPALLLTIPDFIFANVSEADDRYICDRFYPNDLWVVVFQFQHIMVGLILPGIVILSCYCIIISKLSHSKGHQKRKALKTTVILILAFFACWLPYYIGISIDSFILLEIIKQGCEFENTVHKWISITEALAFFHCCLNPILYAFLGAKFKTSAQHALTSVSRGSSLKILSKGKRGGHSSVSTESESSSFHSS

Substance: rat SDF-1 (stromal-derived factor-1) (ligand)
- increase in trafficking of CD34+ human angioblasts to ischemic rat myocardium, with co-administered mAb against human CXCR4: 24%
- increase in trafficking of CD34+ human angioblasts to ischemic rat myocardium, with co-administered mAb against rat SDF-1: 17%
